Data on 20 sequences can be found in the DeepSol protein solubility set.

A short description of the series: soluble on expression in E. coli; label from the status in PepcDB or PDB records.
Consider “MHKLLISLMMLLSFQAFSQVQEYTLNNGLKVLVKEDHRAPVVVSMIWYNVGSADEPVGITGVSHAIEHMMFKGTSKYPVGVFSKTIAALGGQENAFTNNDYTAYYEKLDAGHLATSFELEADRMNNLLLNSEEFAKEIKVIQEERRLRTDNNPQALAFERFLATAHLTAPYNHPVIGWMNDLKQMKVEDLKKWYESYYAPNNATLVVVGDVNPEKVHALAEHYFGSIAKRPIASRKPQQEPSALGKKMVYINAPAKLPLLLIGYTVPSVKTAKNNWEPYALEIIAGILDAGESARFAKHLVRGNQVATGAEAYYNLYSRYQSQFIVYGAPSQDHQIKDLEKALITELEALKKAPVSNQELQRVKNQIIAQKTFEKDSIFGQAMELGLLETIGLGWKNTETYTKAINEITPEQIQQVAQRYFQENNMTVAELKPIRQEEVRP”, for which the “soluble on expression in E. coli” value is “not soluble”. Next, “MGSDKIHHHHHHMILFGTGGIRGVMRKGEFDEETVKRASLSTALWLKEKGQKSVVIAYDTRKNSKEFAELAGRVFAGEGIEAYVFPEPTPTPVLSFAVRYMKTGGGVVITASHNPPEYNGYKVYTWDGVQAIPEYTNEITEIYKKVDLSHVKEGEIKFVPPEVKESYIKAVLEIVSNLPMKTDLDIAYSPLHGTGANYVPEVLKRLGFKVRLVEEQMKPDPNFSTVPTPNPEEDEALVLLNKKGATLGLATDPDCDRVGVVFKGRRLTGNQVGVLLTDFLLDHVKVENPLVIKTIVTTDMVRPICEEKGAFLEETPTGFKFIGHLIEEHTKKGDRNFVFGFEESCGYLAGNHARDKDGVVGSVLSAVAFSNYDPYEKLEELYQKYGYYMEKLINFKFEDVDRAVEIYRSLKNYDGIIDYSKGYGNVIPNETIAFVFEKSRIFVRPSGTEPKLKVYIHVRGDTREEAEELMKESESKIKEILKL”: “not soluble”; “SSMTSRYKRSIESATNVATELSKGNYDARTYGGYIRRSDKLGHAMNSLAIDLMEMTRTQEMQRDRLLTVIENIGSGLIMIDGRGFINLVNRSYAKQFHINPNHMLRRLYHDAFEHEEVIQLVEDIFMTETKKCKLLRLPIKIERRYFEVDGVPIMGPDDEWKGIVLVFHDMTETKKLEQMRKDFVANVSHELKTPITSIKGFTETLLDGAMEDKEALSEFLSIILKESERLQSLVQDLLDLSKIEQQNFTLSIETFEPAKMLGEIETLLKHKADEKGISLHLNVPKDPQYVSGDPYRLKQVFLNLVNNALTYTPEGGSVAINVKPREKDIQIEVADSGIGIQKEEIPRIFERFYRVDKDRSRNSGGTGLGLAIVKHLIEAHEGKIDVTSELGRGTVFTVTLKRAAEKSA”: “not soluble”. Next, “MENTNEAAWILSIDKFRHNEGIINFSDQNRETAYHHTIKEINVALDNFSTKAGDNNMHLVKAKTSQGTELNWHGKFSLSPLKSSGDISFVSPLKIVSDYLQQRILFNITEGSLKVNSHYDFNFAGEQPQFIINNLMASISALEIRSRDDNKKIITSDELSVDLEQLSSLEHHHHHH”: “not soluble”; “MGSSHHHHHHHHDYDIPTTENLYFQGSELSSLTAVSPVDGRYGDKVSALRGIFSEYGLLKFRVQVEVRWLQKLAAHAAIKEVPAFAADAIGYLDAIVANFSEEDAARIKTIERTTNHDVKAVEYFLKEKVAEIPELHAVSEFIHFACTSEDINNLSHALMLKTARDEVILPYWRQLIDGIKDLAVQYRDIPLLSRTHGQPATPSTIGKEMANVAYRMERQYRQLNQVEILGKINGAVGNYNAHIAAYPEVDWHQFSEEFVTSLGIQWNPYTTQIEPHDYIAELFDCVARFNTILIDFDRDVWGYIALNHFKQKTIAGEIGSSTMPHKVNPIDFENSEGNLGLSNAVLQHLASKLPVSRWQRDLTDSTVLRNLGVGIGYALIAYQSTLKGVSKLEVNRDHLLDELDHNWEVLAEPIQTVMRRYGIEKPYEKLKELTRGKRVDAEGMKQFIDGLALPEEEKARLKAMTPANYIGRAITMVDELK”: “soluble”. The result for “MGSDKIHHHHHHMQLPFIAVDYVISVGLCAASTNPSQDKRIKKITVLAVSGKGDLPISFIENQALLDEAAMLTCMAYVDLNPIRAQLADTPEQSDHTSIQLRIRAALKGEQPKNLLPFIVNERDNQPNGIAFLLSDYLELVDDTGRIIRSDKRGAISENSAKLLARLNIPHDNWLKLTTEFGKLFRGPVGTLQELTDYCEHLEKRRRHFAKCCLHFHSN” reads “not soluble”; that for “PEQDIVYISASSGSTGVPTASPFTQSDFDGWIDYEARQFWSSGMRPSDRYVHSLNFSLFIGGPCVLGAQKLGALTIHAGTIPSDRLLQILRQFQATVIWTTPSYAWYLGETAIKEGYDLRKDLAVRRIFVAGEPGGSIPETRNRIEQLWGASVYDYYGLSDIFGSCAGMCEQKE”, “not soluble”. Consider “MAHHHHHHMDDYHDDDVHSNYGYEDDEYDDAADDWEAEAAEEEQRAVAEEAARQARLEKKLATRAPVKKEEEEEAVPEDVERAMADMRQVANDIASGSALLSGGDSEELIGNHKLASDADVERVGTMIADRLTSFSDSGHYDKLIVEVFQRLTNHLTSTHLLNEEADRVHRLREELKRAAKAKLKPVEKAPVTQSGLDLDNFEDRGGAAVADNEDETGW”, for which the “soluble on expression in E. coli” value is “soluble”. The result for “EKDSVLRHNINKLGLTSIAVEPVAAWKLNDRHSFGAGIIAQHTSAELRKYADWGIKSKAEILTAKPPKPNGVAEAAKIQADGHADVKGSDWGFGYQLAWMWDINDRARVGVNYRSKVSHTLKGDAEWAADGAAAKAMWSTMLAANGYTANEKARVKIVTPESLSVHGMYKVSDKADLFGDVTWTRHSRFDKAELVFEKEKTVVKGKSDRTTITPNWRNTYKVGFGGSYQISEPLQLRAGIAFDKSPVRNADYRMNSLPDGNRIWFSAGMKYHIGKNHVVDAAYTHIHINDTSYRTAKASGNDVDSKGASSARFKNHADIIGLQYTYKFK” reads “not soluble”; that for “MAHHHHHHMVFSIPSYLCLGDRPKKVVDERLHGVNFLTSRPKTGHYPDALFDKEFRYVYNGDRYPDPETMARREQMENRKRYITATGFISVFRPKKGEGLGSNYGLLQQEPYIHMPDHPQTRGPQPFPKVKPRQIYTSPSKAGSYGTPGLAITDIGNEYIATIYDQERINAKKERDVWRQRMPPVPFKPVGRRGYTFDEGPATGVSMCYIMTCPFREKRVQPVMKHFIIDKMWLPAGYIPDRPPPVEYWEDPYNGFDPRVDPKSRLKKSEDSIFRTGFRGDNFFYTRSIVFRRL”, “not soluble”.

As for “MRGSHHHHHHGSACELGTMPHIDNDVKLDFKDVLLRPKRSTLKSRSEVDLTRSFSFRNSKQTYSGVPIIAANMDTVGTFEMAKVLCKFSLFTAVHKHYSLVQWQEFAGQNPDCLEHLAASSGTGSSDFEQLEQILEAIPQVKYICLDVANGYSEHFVEFVKDVRKRFPQHTIMAGNVVTGEMVEELILSGADIIKVGIGPGSVCTTRKKTGVGYPQLSAVMECADAAHGLKGHIISDGGCSCPGDVAKAFGAGADFVMLGGMLAGHSESGGELIERDGKKYKLFYGMSSEMAMKKYAGGVAEYRASEGKTVEVPFKGDVEHTIRDILGGIRSTCTYVGAAKLKELSRRTTFIRVTQQVNPIFSEAC”, the “soluble on expression in E. coli” value is on record as “soluble”. With “MNNSAEYFIKSLNMTAHPEGGYFKESFISPSKLAPNTLHINEERLLWTSIYFLLRTGEVSNFHRLKSDEMWYFHAGESLTIYMISPNGELIEKQLGLNIEKGETPQVLVPKDYIFGSAMNNEGFSLVGCMVAPGFDFKDFELFEREDLLEKYPKYKEVIEKLTRLEHHHHHH”, the “soluble on expression in E. coli” value was “not soluble”. Consider “AIARGHGTYMDEDRLTASVAGQVERVNKLICVKPLKTRYNGEVGDVVVGRITEVQQKRWKVETNSRLDSVLLLSAVNLPGGELRRRSTQDELAMRDYLQEGDLISAEVQSIFSDGALSLHTRSLKYGKLGQGVLVYVSPSLVKRQKTHFHNLPCGASLILGNNGYVWLSPTPALQEEQAGGFYTSMEPVSLSDREVVSRLRNCLLALANQKVLLFDTSVLYCYEASLQHQIKDILKPEIMEEIVLETRQRLMEHEG”, for which the “soluble on expression in E. coli” value was “soluble”. The result for “MKTSKFTEAQIAFALKQAELGTKVEEVCRKLGISEATFYNWKKKYGGVGPSELRRMRQLEEENTKLKRLVADLSLDKAMLQDVLSKKLAAALEHHHHHH” reads “not soluble”. Take “MFKPELLSPAGTLKNMRYAFAYGADAVYAGQPRYSLRVRNNEFNHENLQLGINEAHALGKKFYVVVNIAPHNAKLKTFIRDLKPVVEMGPDALIMSDPGLIMLVREHFPEMPIHLSVQANAVNWATVKFWQQMGLTRVILSRELSLEEIEEIRNQVPDMEIEIFVHGALCMAYSGRCLLSGYINKRDPNQGTCTNACRWEYNVQEGKEDDVGNIVHKYEPIPVQNVEPTLGIGAPTDKVFMIEEAQRPGEYMTAFEDEHGTYIMNSKDLRAIAHVERLTKMGVHSLKIEGRTKSFYYCARTAQVYRKAIDDAAAGKPFDTSLLETLEGLAHRGYTEGFLRRHTHDDYQNYEYGYSVSDRQQFVGEFTGERKGDLAAVAVKNKFSVGDSLELMTPQGNINFTLEHMENAKGEAMPVAPGDGYTVWLPVPQDLELNYALLMRNFSGETTRNPHGK”: the “soluble on expression in E. coli” value was “not soluble”.

As to “MSIASVASVFKGEHAVGSTVTVRGWVRTRRDSKAGISFLAVYDGSCFNPIQGVVPNSLENYDNEVLKLTAGCSVIVTGDIVESPGAGQAYELQVTAVEVTGWVEDPDTYPMAAKRHSIEHLRELAHLRPRTNIIGAVARVRNCLSQAIHRFYHENGFVWVSTPLITASDCEGAGEMFRVSTLDMENLPRTSDGKVDYDKDFFGKEAFLTVSGQLNGETYACALSKIYTFGPTFRAENSNTSRHLAEFWMVEPEVAFATLNDIAGLAEGMLKYAFNAVLTERMDDLQFFAQHVDKTVIERLQSFVSSDFAQVDYTDAVEILQKSGREFEFPVSWGIDLSSEHERYLAEEHFKAPVVVKNYPKDIKAFYMRLNEDGKTVAAMDVLAPGIGEIIGGSQREERLDVLDMRLEEMDLNKEDYWWYRDLRRYGTVPHAGFGLGFERLVSYVTGVSNIRDVIPFPRAPRTANFLEHHHHHH”, the “soluble on expression in E. coli” value is “soluble”. With “GPGSSLMFSRPPSKLSGAPTREDLDEIIAEEVREWVAKMVGVKHNADVWSMPNFVDALRSGVLLHVLLQKMESPPVSDEDLKLPKRTTGFFVRDNVATFLTTAKSRYDLVDAQLFTVSDLVDGKNDRQVVTCLMSIARIAYSAGAIK”, the “soluble on expression in E. coli” value is “not soluble”. Next, “MAASAWCCLRCCRDGGTGHIPLKEMPAVQLDTQHMGTDVVIVKNGRRICGTGGCLASAPLHQNKSYFEFKIQSTGIWGIGVATQKVNLNQIPLGRDMHSLVMRNDGALYHNNEEKNRLPANSLPQEGDVVGITYDHVELNVYLNGKNMHCPASGIRGTVYPVVYVDDSAILDCQFSEFYHTPPPGFEKILFEQQIF”: “soluble”.

For “MTSQRCRRRYFMMIRERIEEKLRAAFQPVFLEVVDESYRHNVPAGSESHFKVVLVSDRFTGERFLNRHRMIYSTLAEELSTTVHALALHTYTIKEWEGLQDTVFASPPCRGAGSIA”, the “soluble on expression in E. coli” value is reported as “soluble”.

In the case of “METMTELNTKEMKLDALLKDMQSVVIAFSGGVDSSLLLKKAIDILGVNYVKPVVVKSELFRNEEFELALKLGQSLGVEVLETEMSELQDANIVKNTPESWYYSKRLMYSQLENIKNKLGFNYVLDGMIMDDLDDFRPGLKARDDFGVRSVLQEAKLYKSEVRELSHQHDLPVWNKPALCSLASRIPYGEELSFTKVNKVNEAEKFILSLGINHVRVRYHHNIARIEVTEDQLNNLLKLKDSIILHLKELGFDYVTMDLEGYRTGSMNEIIDTKSTSFK”, the “soluble on expression in E. coli” value is listed as “not soluble”.
